Molecular target: MUC2C-N (human MUC2 4256-4803, C4786A; PTS3, VWCN, D4 and VWC1) (human)
Test: cross-linking

MUC2C-N (human MUC2 4256-4803, C4786A; PTS3, VWCN, D4 and VWC1) (domain or fragment)
stoichiometry N: 2

Source: doi:10.1101/2025.03.16.643548
